Patent CN116178545A (GUANGDONG FEIPENG PHARMACEUTICAL CO LTD, dated 2023)

T1: 重组人PD-L2蛋白 (human, UniProt Q9BQ51 20-219)
T1 construct: The words 携带hFc标签的 stand before the first protein of the list; also called Acrobiosystem Cat.PD2-H5251
T1 sequence (looked up): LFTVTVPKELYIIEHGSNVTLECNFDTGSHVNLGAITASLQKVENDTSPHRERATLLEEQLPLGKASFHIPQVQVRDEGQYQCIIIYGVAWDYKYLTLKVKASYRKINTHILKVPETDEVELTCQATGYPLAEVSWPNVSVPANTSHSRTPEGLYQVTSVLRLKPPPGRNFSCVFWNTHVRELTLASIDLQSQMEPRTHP

T2: 重组人ICOS蛋白 (human, UniProt Q9Y6W8 21-140)
T2 construct: The words 携带hFc标签的 stand before the first protein of the list; also called Acrobiosystem Cat.ICS-H5250
T2 sequence (looked up): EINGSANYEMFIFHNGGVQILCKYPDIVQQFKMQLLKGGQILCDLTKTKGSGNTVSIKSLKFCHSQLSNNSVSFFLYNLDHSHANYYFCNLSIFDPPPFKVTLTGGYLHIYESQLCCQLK

T3: 重组人ICOSLG蛋白 (human, UniProt O75144 19-258)
T3 construct: The words 携带hFc标签的 stand before the first protein of the list; also called Acrobiosystem Cat.B72-H5254
T3 sequence (looked up): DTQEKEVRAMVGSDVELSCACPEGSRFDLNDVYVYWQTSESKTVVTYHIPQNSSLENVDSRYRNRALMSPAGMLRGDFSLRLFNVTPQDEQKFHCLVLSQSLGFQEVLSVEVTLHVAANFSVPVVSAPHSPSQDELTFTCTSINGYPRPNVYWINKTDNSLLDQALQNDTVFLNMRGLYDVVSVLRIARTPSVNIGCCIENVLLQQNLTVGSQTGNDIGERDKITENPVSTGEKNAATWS

T4: 重组人CD276蛋白 (human, UniProt Q5ZPR3-2 29-245)
T4 construct: The words 携带hFc标签的 stand before the first protein of the list; also called B7-H3; Acrobiosystem Cat.B73-H5253
T4 sequence (looked up): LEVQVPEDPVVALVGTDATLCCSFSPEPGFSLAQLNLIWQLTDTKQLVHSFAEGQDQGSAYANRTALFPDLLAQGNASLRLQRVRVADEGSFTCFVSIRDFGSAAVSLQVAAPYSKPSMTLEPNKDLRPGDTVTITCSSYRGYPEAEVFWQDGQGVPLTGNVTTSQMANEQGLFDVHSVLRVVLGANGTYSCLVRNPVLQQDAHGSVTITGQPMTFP

T5: 重组人CD86蛋白 (human, UniProt P42081 26-247)
T5 construct: The words 携带hFc标签的 stand before the first protein of the list; also called Acrobiosystem Cat.CD6-H5257
T5 sequence (looked up): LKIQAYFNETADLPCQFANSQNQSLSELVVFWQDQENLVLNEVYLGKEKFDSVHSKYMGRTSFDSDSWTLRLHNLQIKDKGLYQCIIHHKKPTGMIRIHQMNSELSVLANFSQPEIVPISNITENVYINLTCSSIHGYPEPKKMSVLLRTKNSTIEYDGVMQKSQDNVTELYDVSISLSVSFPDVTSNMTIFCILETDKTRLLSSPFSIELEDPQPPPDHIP


What was measured:
hPD-L1-his = biological target: T6, hPD-L1-his (human, UniProt Q9NZQ7 19-238); test: BLI (ForteBIO), hPD-L1-his on anti-Penta-HIS sensor
T6 construct: extracellular domain; also called 携带his标签的人PD-L1胞外区重组蛋白; not shown: his tag
T6 sequence (Q9NZQ7 19-238): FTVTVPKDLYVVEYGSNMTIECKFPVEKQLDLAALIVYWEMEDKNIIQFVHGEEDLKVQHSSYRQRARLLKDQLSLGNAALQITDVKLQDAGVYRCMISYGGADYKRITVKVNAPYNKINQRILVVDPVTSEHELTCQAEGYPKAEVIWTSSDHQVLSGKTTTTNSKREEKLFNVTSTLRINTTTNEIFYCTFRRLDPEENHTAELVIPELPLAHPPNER

重组人PD-L2蛋白 = biological target: T1, 重组人PD-L2蛋白; test: ELISA, protein coated at 1μg/ml
重组人PD-1蛋白(自产) = biological target: T7, 重组人PD-1蛋白(自产) (human, UniProt Q15116 25-167); test: ELISA, protein coated at 1μg/ml
T7 construct: The words 携带hFc标签的 stand before the first protein of the list
T7 sequence (Q15116 25-167): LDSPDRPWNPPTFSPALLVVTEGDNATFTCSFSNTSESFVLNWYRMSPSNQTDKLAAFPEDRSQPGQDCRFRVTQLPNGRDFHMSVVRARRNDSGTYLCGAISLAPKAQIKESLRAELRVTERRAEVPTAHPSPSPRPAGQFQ

重组人ICOS蛋白 = biological target: T2, 重组人ICOS蛋白; test: ELISA, protein coated at 1μg/ml
重组人ICOSLG蛋白 = biological target: T3, 重组人ICOSLG蛋白; test: ELISA, protein coated at 1μg/ml
重组人CD276蛋白 = biological target: T4, 重组人CD276蛋白; test: ELISA, protein coated at 1μg/ml
重组人CD86蛋白 = biological target: T5, 重组人CD86蛋白; test: ELISA, protein coated at 1μg/ml
重组人CD28蛋白 = biological target: T8, 重组人CD28蛋白 (human, UniProt P10747 19-152); test: ELISA, protein coated at 1μg/ml
T8 construct: The words 携带hFc标签的 stand before the first protein of the list; also called Acrobiosystem Cat.CD8-H525a

重组人CTLA-4蛋白 = biological target: T9, 重组人CTLA-4蛋白 (human, UniProt P16410 37-162); test: ELISA, protein coated at 1μg/ml
T9 construct: The words 携带hFc标签的 stand before the first protein of the list; also called Acrobiosystem Cat.CT4-H5255
T9 sequence (P16410 37-162): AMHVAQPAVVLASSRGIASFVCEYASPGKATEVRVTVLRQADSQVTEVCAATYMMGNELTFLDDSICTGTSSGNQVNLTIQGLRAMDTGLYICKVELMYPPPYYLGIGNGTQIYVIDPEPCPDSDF

小鼠PD-L1 (on CHO cells) = biological target: T10, 小鼠PD-L1 (on CHO cells) (mouse, UniProt Q9EP73 19-290); test: flow cytometry on CHO-mPD-L1 cells
T10 construct: whole, on cells; also called CHO-mPD-L1稳定细胞株; 稳定表达全长小鼠PD-L1的CHO
T10 sequence (Q9EP73 19-290): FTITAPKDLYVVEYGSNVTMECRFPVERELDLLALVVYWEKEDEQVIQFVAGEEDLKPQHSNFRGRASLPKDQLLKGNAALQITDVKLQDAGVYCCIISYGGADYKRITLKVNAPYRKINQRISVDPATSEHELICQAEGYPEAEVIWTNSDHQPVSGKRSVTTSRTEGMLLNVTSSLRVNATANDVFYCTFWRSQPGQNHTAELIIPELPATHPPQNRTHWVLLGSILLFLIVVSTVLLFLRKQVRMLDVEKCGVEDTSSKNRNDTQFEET

人PD-L1 (on cells) = biological target: T11, 人PD-L1 (on cells) (human, UniProt Q9NZQ7 19-290); test: flow cytometry on IFNγ-stimulated A375 cells
T11 construct: whole, on cells; One molecule for human PD-L1 on CHO-hPD-L1, on IFNγ-stimulated A375 and on CHO-hPD-L1-OKT3 cells; the cell is named under assay; also called CHO-hPD-L1稳定细胞株; 稳定表达人PD-L1的CHO
T11 sequence (Q9NZQ7 19-290): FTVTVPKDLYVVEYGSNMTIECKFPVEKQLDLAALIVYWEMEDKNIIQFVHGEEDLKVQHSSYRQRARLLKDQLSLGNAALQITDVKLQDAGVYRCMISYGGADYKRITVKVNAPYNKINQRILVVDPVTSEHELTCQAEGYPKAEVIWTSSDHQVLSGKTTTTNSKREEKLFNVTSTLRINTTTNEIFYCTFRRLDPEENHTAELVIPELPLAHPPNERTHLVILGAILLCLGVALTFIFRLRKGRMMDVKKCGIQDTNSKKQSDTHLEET

Kd (hPD-L1-his) | binding result (重组人PD-L2蛋白) | binding result (重组人PD-1蛋白(自产)) | binding result (重组人ICOS蛋白) | binding result (重组人ICOSLG蛋白) | binding result (重组人CD276蛋白) | binding result (重组人CD86蛋白) | binding result (重组人CD28蛋白) | binding result (重组人CTLA-4蛋白) | binding result (小鼠PD-L1 (on CHO cells)) | EC50 (人PD-L1 (on cells)) | Binder
< 0.001 nM |  |  |  |  |  |  |  |  |  |  | F016-870-hIgG1 (antibody, V domains shown) VH: EVQLQESGPSLVKPSQTLSLTCSVTGDSITSGYWNWIRKFPGNKLEYMGYISYTGSTYQNPSLKSRISFTRDTSKNQYYLQLSSVTTEDTATYYCARSRAWIRTYFDYWGQGTTLTVSS VL: EIVLTQSPALMAASPGEKVTITCSVSSSISSSNLHWYQQKSETSPKPWIYGTSNLASGVPVRFSGSGSGTSYSLTISSMEAEDAATYYCQQWSSYPLTFGAGTKLELKR
0.0302 nM | no binding (tested: 10μg/ml) | no binding (tested: 10μg/ml) | no binding (tested: 10μg/ml) | no binding (tested: 10μg/ml) | no binding (tested: 10μg/ml) | no binding (tested: 10μg/ml) | no binding (tested: 10μg/ml) | no binding (tested: 10μg/ml) | no binding (tested: 20μg/ml) | ~0.2 nM | 176L6H5 (antibody, V domains shown, Whole humanized mAb expressed in 293 cells; detected with anti-human IgG; also called 抗人PD-L1人源化抗体176L6H5) VH: EVQLQESGPGLVKPSETLSLTCAVYGDSITSGYWNWIRKPPGKGLEYMGYISYTGSTYQNPSLKSRITFSRDTSKNQYYLKLSSVTAADTATYYCARSRAWIRTYFDYWGQGTLVTVSS VL: EIVLTQSPDFQSVTPKEKVTITCSVSSSISSSNLHWYQQKPDQSPKLLIYGTSNLASGVPSRFSGSGSGTDFTLTINSLEAEDAATYYCQQWSSYPLTFGQGTKLEIKR
0.0848 nM | no binding (tested: 10μg/ml) | no binding (tested: 10μg/ml) | no binding (tested: 10μg/ml) | no binding (tested: 10μg/ml) | no binding (tested: 10μg/ml) | no binding (tested: 10μg/ml) | no binding (tested: 10μg/ml) | no binding (tested: 10μg/ml) | no binding (tested: 20μg/ml) | ~0.2 nM | 176L4H2 (antibody, V domains shown, Whole humanized mAb expressed in 293 cells; detected with anti-human IgG; also called 抗人PD-L1人源化抗体176L4H2) VH: QVQLQESGPGLVKPSETLSLTCAVYGDSITSGYWNWIRKPPGKKLEYIGYISYTGSTYQNPSLKSRITMSRDTSKNQYYLKLSSVTAADTAVYYCARSRAWIRTYFDYWGQGTLVTVSS VL: DIQMTQSPSSLSASVGDRVTITCSVSSSISSSNLHWYQQKPGKAPKPWIYGTSNLASGVPSRFSGSGSGTDYTLTISSLQPEDFATYYCQQWSSYPLTFGQGTKLEIKR
0.0881 nM | no binding (tested: 10μg/ml) | no binding (tested: 10μg/ml) | no binding (tested: 10μg/ml) | no binding (tested: 10μg/ml) | no binding (tested: 10μg/ml) | no binding (tested: 10μg/ml) | no binding (tested: 10μg/ml) | no binding (tested: 10μg/ml) | no binding (tested: 20μg/ml) | ~0.2 nM | 176L4H4 (antibody, V domains shown, Whole humanized mAb expressed in 293 cells; detected with anti-human IgG; also called 抗人PD-L1人源化抗体176L4H4) VH: QVQLQESGPGLVKPSETLSLTCSVYGDSITSGYWNWIRKPPGKKLEYMGYISYTGSTYQNPSLKSRITFSRDTSKNQYYLKLSSVTAADTAVYYCARSRAWIRTYFDYWGQGTLVTVSS VL: DIQMTQSPSSLSASVGDRVTITCSVSSSISSSNLHWYQQKPGKAPKPWIYGTSNLASGVPSRFSGSGSGTDYTLTISSLQPEDFATYYCQQWSSYPLTFGQGTKLEIKR
0.0084 nM | no binding (tested: 10μg/ml) | no binding (tested: 10μg/ml) | no binding (tested: 10μg/ml) | no binding (tested: 10μg/ml) | no binding (tested: 10μg/ml) | no binding (tested: 10μg/ml) | no binding (tested: 10μg/ml) | no binding (tested: 10μg/ml) | no binding (tested: 20μg/ml) | ~0.2 nM | 176L4H1 (antibody, V domains shown, Whole humanized mAb expressed in 293 cells; detected with anti-human IgG; also called 抗人PD-L1人源化抗体176L4H1) VH: QVQLQESGPGLVKPSETLSLTCAVYGDSITSGYWNWIRKPPGKGLEYIGYISYTGSTYQNPSLKSRITMSRDTSKNQYYLKLSSVTAADTAVYYCARSRAWIRTYFDYWGQGTLVTVSS VL: DIQMTQSPSSLSASVGDRVTITCSVSSSISSSNLHWYQQKPGKAPKPWIYGTSNLASGVPSRFSGSGSGTDYTLTISSLQPEDFATYYCQQWSSYPLTFGQGTKLEIKR
0.08 nM | no binding (tested: 10μg/ml) | no binding (tested: 10μg/ml) | no binding (tested: 10μg/ml) | no binding (tested: 10μg/ml) | no binding (tested: 10μg/ml) | no binding (tested: 10μg/ml) | no binding (tested: 10μg/ml) | no binding (tested: 10μg/ml) | no binding (tested: 20μg/ml) | ~0.2 nM | 176L4H3 (antibody, V domains shown, Whole humanized mAb expressed in 293 cells; detected with anti-human IgG; also called 抗人PD-L1人源化抗体176L4H3) VH: QVQLQESGPGLVKPSETLSLTCAVYGDSITSGYWNWIRKPPGKKLEYIGYISYTGSTYQNPSLKSRITFSRDTSKNQYYLKLSSVTAADTAVYYCARSRAWIRTYFDYWGQGTLVTVSS VL: DIQMTQSPSSLSASVGDRVTITCSVSSSISSSNLHWYQQKPGKAPKPWIYGTSNLASGVPSRFSGSGSGTDYTLTISSLQPEDFATYYCQQWSSYPLTFGQGTKLEIKR
0.109 nM | no binding (tested: 10μg/ml) | no binding (tested: 10μg/ml) | no binding (tested: 10μg/ml) | no binding (tested: 10μg/ml) | no binding (tested: 10μg/ml) | no binding (tested: 10μg/ml) | no binding (tested: 10μg/ml) | no binding (tested: 10μg/ml) | no binding (tested: 20μg/ml) | ~0.2 nM | 176L5H2 (antibody, V domains shown, Whole humanized mAb expressed in 293 cells; detected with anti-human IgG; also called 抗人PD-L1人源化抗体176L5H2) VH: QVQLQESGPGLVKPSETLSLTCAVYGDSITSGYWNWIRKPPGKKLEYIGYISYTGSTYQNPSLKSRITMSRDTSKNQYYLKLSSVTAADTAVYYCARSRAWIRTYFDYWGQGTLVTVSS VL: EIVLTQSPSSLSASVGDRVTITCSVSSSISSSNLHWYQQKPGKAPKPWIYGTSNLASGVPSRFSGSGSGTDYTLTISSLQPEDFATYYCQQWSSYPLTFGQGTKLEIKR
